{
  "source": "paper PMC12274814",
  "about": "“ATPase-dependent duplex nucleic acid unwinding by SARS-CoV-2 nsP13 relies on facile binding and translocation along single-stranded nucleic acid”",
  "settings_in_all_cases": "protein: recombinant; chain copies: 2; single strand 25 nt",
  "key": {"nsP13 helicase [1]": {"target": "T1, nsP13 helicase (SARS-CoV-2, UniProt P0DTD1 5325-5925)", "assay": "competition, 500 nM ssDNA-F, 30 nM nsP13"}, "nsP13 helicase [2]": {"target": "T1, nsP13 helicase", "assay": "competition, 500 nM ssDNA-F, 30 nM nsP13; 3 mM ATP, 5 mM Mg2+; K1/2 of TrapDNA"}, "nsP13 helicase [3]": {"target": "T1, nsP13 helicase", "assay": "competition, 500 nM ssDNA-F, 30 nM nsP13; 3 mM ATPgS, 5 mM Mg2+; K1/2 of TrapDNA"}},
  "data": [
    {"binder": "TCTAATGTAGTATAGTAATCCGCTC (ssDNA)", "note": "[TrapDNA]", "values": [
      {"measurement": "IC50", "setting": "nsP13 helicase [1]", "value": 460, "unit": "nM"},
      {"measurement": "IC50", "setting": "nsP13 helicase [2]", "value": 950, "unit": "nM"},
      {"measurement": "IC50", "setting": "nsP13 helicase [3]", "value": 3100, "unit": "nM"}
    ]}
  ]
}
